In patent US20250355001A1, “METHOD FOR DETECTING A TAU PROTEIN FRAGMENT IN A SAMPLE” (GTINVENT LIMITED, priority 2022, published 2025):

B1: S1D12: sheep-derived anti-tau core clone; scFv SEQ ID NO: 32, VH 443, VL 444 (protein)
scFv: QVQLQESGPSLVKPSQTLSLTCTVSGFSLNNNAVGWVRQAPGKVPESLVGCSSDGTCYYNSALKSRLDITRDTSKNQISLSLSSVTTDDAAVYYCTRGHYSIYGYDYLGTIDYWGPGLLVTVSSEGKSSGASGESKVDDQAVLTQPSSVSGSLGQRVSITCSGSSSNVGGGNSVGWYQHLPGSGLKTIIYDTNSRPSGVPDRFSGSRSGNTATLTINSLQAEDEGDYYCVTGDSTTHDDLVGSGTRLTVLG
modifications: S1D12 amino acid sequence
B2: S1G2: sheep-derived anti-tau core clone; scFv SEQ ID NO: 81, VH 455, VL 456 (protein)
scFv: QVQLQESGPSLVKPSQTLSLTCTVSGFSLTSNSVGWVRQAPGKAPEWVAGIDTDGEEGYNPALNSRLSITRDTSKSQVSLSLSSVTSEDTAVYYCGRSYRADGLAYGYVQAIDYWGPGLLVTVSSEGKSSGASGESKVDDQAVVTQPSSVSGSLGQRVSITCSGSFIGISSVGWFQQLPGSGLRTIIVASDGRPSGVPDRFSMSKSGNTATLTISSLQAEDEADYFCGSSDRTPYTGVFGSGTRLTVLG
modifications: S1G2 amino acid sequence
B3: CE2: anti-tau core clone, Table 10; SEQ ID NO: 366 (protein)
scFv: QVQLQESGPSLVKPSQTLSLTCTVSGFSLTNYPVGWVRQAPGKALEWIGNIENDGSANYASALKSRLSITRDTSKNQVSLSLSSATTEDTAVYYCGREFGGSDGYTYFVDIDYWGPGLLVTVSSEGKSSGASGESKVDDQAVLTQPSSVSKSLGQSVSITCSGSSSNVGYGNYVSWFQQVPGSAPKILIYGATSRASGVPDRFSGSRSGNTATLTITSLQAEDEADYYCASYDGSSSGVFGSGTRLTVLG
modifications: CE2/E1B8 amino acid sequence

How the values were obtained:
[1] = target: dGA (SEQ ID NO: 5) (Homo sapiens, UniProt P10636); experiment: Biacore X100 SPR kinetics of scAbs for dGA; assay type: binding; conditions: Table 24, scAb, dGA analyte; for Kd: dissociation rate
Chain of dGA (SEQ ID NO: 5) (P10636 614-707): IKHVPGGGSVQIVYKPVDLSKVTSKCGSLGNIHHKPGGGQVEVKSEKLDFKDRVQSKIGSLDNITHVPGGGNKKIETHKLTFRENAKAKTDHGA
Description: Surface plasmon resonance (SPR) is widely regarded as the gold standard for real time measurement of protein-protein interactions such as antibody binding. All SPR experiments were carried out using a Biacore X100 machine and HBS EP+ running buffer (GE Healthcare). A ‘capture’ method was followed for affinity measurements, where an anti-human constant kappa chain (HuCk) antibody was conjugated to the surface of a CM5 sensor chip using an amine coupling kit and scAb molecules were immobilised via their HuCk domain. Amine coupling is a very common approach for immobilising the ligand to the chip surface. The chip surface has a dextran matrix derivatised with carboxyl groups, which after activation with N-hydroxysuccinimide (NHS) and 1-ethyl-3-(3-dimethylaminopropyl) carbodiimide (EDC), form reactive succinimide esters which allows the covalent capturing of the ligand via any available primary amine groups (e.g. Lysine) on the ligand (in this case anti-HuCk antibody). The capture antibody was diluted 1/100 in 10 mM Sodium acetate buffer pH 5.0 and passed over the activated chip surface for a period of at least 420 s. Final ligand immobilisation levels over 12,000 RU were deemed to be satisfactory.
Following immobilisation, the level of each scAb to be captured was identified using the standard SPR equation with a theoretical RMax of 100 RU. Analyte MW refers to the molecular weight of hT40 or dGA/dGAE molecules, while ligand MW refers to the molecular weight of the scAbs tested. RL is the desired capture level and S refers to the stoichiometric ratio:
The scAb to be tested was added only to flow cell 2 so that flow cell 1 could act as a control to subtract any interaction with the analyte and the chip surface. Both single and multi-cycle runs were utilised using wizards developed in the Biacore X100 control software which are both accepted methods of kinetic analysis (Karlsson, R., et al. Analyzing a kinetic titration series using affinity biosensors (2006) Analytical Biochemistry 349:136-47). The multi-cycle protocol was as follows-Three start-up cycles composed of an initial capture, to the desired level, of the scAb to be tested was performed followed by a 30 s injection of glycine buffer pH 2.0 after each cycle to regenerate the chip surface. The regeneration step removed any captured scAb whilst leaving the capture antibody intact and able to repeat the capture for the next cycle. Following three start-up cycles increasing concentrations (0.15625 nM-100 nM) of the target to be tested were added to the chip surface after the desired scAb capture. The target was added for a 120 s association period and 420 s dissociation period followed by another regeneration, 30 s injection of glycine buffer pH 2.0 in between each cycle.
The single cycle kinetics protocol was similar and utilised the same level of scAb capture. Three start-up cycles were used followed by 5 increasing concentrations of the analyte (6.25 nM-100 nM) for an association period of 120 s followed by a dissociation period of 420 s for each concentration. In single cycle kinetics the regeneration step was performed only after the final analyte concentration was added. Binding responses were analysed in Biacore X100 evaluation software and data fitted to a 1:1 binding model to obtain kinetic and affinity characterisation.

[2] = target: T1, hT40 (T441, SEQ ID NO: 1) (Homo sapiens, UniProt P10636); experiment: Biacore X100 SPR kinetics of scAbs for hT40; assay type: binding; conditions: Table 23; scAb captured, T441 (hT40) analyte; 1:1 model
T1 construct: Full length tau (hT40)
T1 sequence (P10636 1-441 isoform P10636-8): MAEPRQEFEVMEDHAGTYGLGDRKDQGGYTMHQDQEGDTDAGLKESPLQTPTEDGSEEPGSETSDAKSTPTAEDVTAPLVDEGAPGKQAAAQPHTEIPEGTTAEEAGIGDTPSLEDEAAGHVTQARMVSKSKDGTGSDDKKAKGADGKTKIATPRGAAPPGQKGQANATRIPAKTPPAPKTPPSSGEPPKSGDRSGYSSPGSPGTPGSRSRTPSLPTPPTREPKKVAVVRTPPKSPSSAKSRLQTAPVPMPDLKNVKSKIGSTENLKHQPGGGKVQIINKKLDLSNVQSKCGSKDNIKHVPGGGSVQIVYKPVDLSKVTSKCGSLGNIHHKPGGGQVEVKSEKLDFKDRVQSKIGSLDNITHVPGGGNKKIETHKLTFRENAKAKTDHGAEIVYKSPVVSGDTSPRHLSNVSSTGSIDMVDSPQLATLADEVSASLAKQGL
In short: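 Captured scAb on anti-HuCk CM5 surface (flow cell 1 as reference) in HBS-EP+, capture set for theoretical RMax 100 RU; hT40 injected multi-cycle (0.15625–100 nM) or single-cycle (6.25–100 nM), 120 s association, 420 s dissociation, glycine pH 2.0 regeneration. Kinetics and affinity from 1:1 binding model fit.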

[3] = system: hT40, dGA, dGAE and truncated tau fragments; experiment: Binding ELISA / epitope mapping of anti-tau scAbs with truncated tau proteins and 13mer peptides; parameters: species or system human; conditions: for Tau proteins/fragments with positive scAb reactivity: binding ELISA; for binding region on hT40: amino acid residues of hT40; for Binding region hT40: second Table 26, own antibodies
In short: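 Plates coated with 1 μg/ml tau protein, or 5 μg/ml streptavidin then 1 μg/ml biotinylated 13mer peptide; blocked with 2% MPBS. scAbs added at a starting concentration and double-diluted. Bound scAb detected with HRP anti-human C kappa and read as absorbance.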

[4] = Table 16, NS, S and M clones, incl. 13mer peptides
[5] = Table 26 summary, top scAbs, residues of hT40
[6] = residue numbers of SEQ ID NO: 1 (hT40), CDR Tables 1-11
[7] = Table 15, residue numbers of hT40

Molecule	ka [1] [M⁻¹ s⁻¹]	Kd [1] [s⁻¹]	ka [2] [M⁻¹ s⁻¹]	kd [2] [s⁻¹]	Tau proteins/fragments with positive scAb reactivity ([3]; Table 16, NS, S and M clones)	Shortest region bound on hT40 [3, 4]	Epitope [3, 5]	binding region on hT40 [3]	Epitope [3, 6]	Binding region hT40 [3]	Detection scAb (Epitope) ([3]; Table 28 (LoD table), residues of hT40)	cross-reactivity using hT40, dGA and dGAE antigens ([3]; ELISA, 'E' group scAbs)	Tau proteins/fragments with positive scAb reactivity [3, 7]	Shortest region bound on hT40 [3, 7]	Tau proteins/fragments with positive scAb reactivity ([3]; Table 17, 'C' group scAbs)	Shortest region bound on hT40 ([3]; Table 17, 'C' group scAbs, incl. 13mer peptides)	Epitope ([3]; Table 26 summary, top scAbs, residues of hT40, listed as E1B8)	binding region on hT40 ([3]; listed as E1B8 scAb)	hT40 binding region ([3]; second Table 25, mAb format)
B1	1.21e+06	0.000418	1.252e+06	0.00015	hT40, 297-390 (dGA), 297-391 (dGAE), 186-350, 266-359, 337-368	337-355	337-349	337-355	337-355	(Binding region hT40 337-355)	–	–	–	–	–	–	–	–	–
B2	783000	0.0003499	1.057e+06	0.00018	hT40, 297-390 (dGA), 297-391 (dGAE), 369-390, 369-391	367-379	367-379	367-379	–	(Binding region hT40 367-379)	S1G2 (367-379)	–	–	–	–	–	–	–	–
B3	137000	0.00242	213700	0.001077	–	–	319-331	–	319-331	–	–	cross-reacts with dGA	297-390 (dGA), 297-391 (dGAE), 313-336	313-336	hT40, 266-359 (R1-3)	319-331	316-336	313-336	319-331
